Measurements reported in patent US20250262210A1 (TRUSTEES OF COLUMBIA UNIVERSITY IN THE CITY OF NEW YORK, published 2025).

T1: LZTR1 R810W-FLAG (human, UniProt Q8N653 1-840)
T1 construct: Stably expressed in U87 cells by lentivirus; also called LZTR1-FLAG-R810W; LZTR1 RW; not shown: FLAG tag
T1 sequence (looked up): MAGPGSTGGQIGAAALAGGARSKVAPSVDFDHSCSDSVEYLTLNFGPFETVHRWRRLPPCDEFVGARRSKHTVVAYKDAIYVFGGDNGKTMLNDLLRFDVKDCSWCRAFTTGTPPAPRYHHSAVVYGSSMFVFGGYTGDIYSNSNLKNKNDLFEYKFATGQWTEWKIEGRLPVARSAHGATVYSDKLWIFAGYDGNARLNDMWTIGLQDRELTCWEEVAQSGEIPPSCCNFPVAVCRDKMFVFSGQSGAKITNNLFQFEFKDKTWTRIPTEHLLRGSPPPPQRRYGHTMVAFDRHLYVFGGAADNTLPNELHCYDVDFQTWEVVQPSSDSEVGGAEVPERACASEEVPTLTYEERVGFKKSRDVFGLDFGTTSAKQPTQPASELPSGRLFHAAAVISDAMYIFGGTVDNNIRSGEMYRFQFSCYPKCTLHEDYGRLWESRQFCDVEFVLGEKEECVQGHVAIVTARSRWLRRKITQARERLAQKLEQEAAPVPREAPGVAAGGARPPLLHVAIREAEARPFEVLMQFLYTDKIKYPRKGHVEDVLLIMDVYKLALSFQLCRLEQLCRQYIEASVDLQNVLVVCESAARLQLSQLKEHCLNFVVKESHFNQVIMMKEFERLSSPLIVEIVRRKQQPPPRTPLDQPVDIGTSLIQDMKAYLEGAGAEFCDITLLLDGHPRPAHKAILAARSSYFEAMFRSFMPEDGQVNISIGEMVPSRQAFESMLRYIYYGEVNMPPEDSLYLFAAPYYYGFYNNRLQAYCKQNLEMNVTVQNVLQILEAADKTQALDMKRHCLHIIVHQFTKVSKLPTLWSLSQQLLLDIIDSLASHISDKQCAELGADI

T2: LZTR1-FLAG (human, UniProt Q8N653 1-840)
T2 construct: Expressed in HEK 293T, HeLa or U87 cells; used as cell lysate; also called LZTR1 wild type-FLAG; LZTR1 WT; not shown: FLAG tag at the C-terminus
T2 sequence (looked up): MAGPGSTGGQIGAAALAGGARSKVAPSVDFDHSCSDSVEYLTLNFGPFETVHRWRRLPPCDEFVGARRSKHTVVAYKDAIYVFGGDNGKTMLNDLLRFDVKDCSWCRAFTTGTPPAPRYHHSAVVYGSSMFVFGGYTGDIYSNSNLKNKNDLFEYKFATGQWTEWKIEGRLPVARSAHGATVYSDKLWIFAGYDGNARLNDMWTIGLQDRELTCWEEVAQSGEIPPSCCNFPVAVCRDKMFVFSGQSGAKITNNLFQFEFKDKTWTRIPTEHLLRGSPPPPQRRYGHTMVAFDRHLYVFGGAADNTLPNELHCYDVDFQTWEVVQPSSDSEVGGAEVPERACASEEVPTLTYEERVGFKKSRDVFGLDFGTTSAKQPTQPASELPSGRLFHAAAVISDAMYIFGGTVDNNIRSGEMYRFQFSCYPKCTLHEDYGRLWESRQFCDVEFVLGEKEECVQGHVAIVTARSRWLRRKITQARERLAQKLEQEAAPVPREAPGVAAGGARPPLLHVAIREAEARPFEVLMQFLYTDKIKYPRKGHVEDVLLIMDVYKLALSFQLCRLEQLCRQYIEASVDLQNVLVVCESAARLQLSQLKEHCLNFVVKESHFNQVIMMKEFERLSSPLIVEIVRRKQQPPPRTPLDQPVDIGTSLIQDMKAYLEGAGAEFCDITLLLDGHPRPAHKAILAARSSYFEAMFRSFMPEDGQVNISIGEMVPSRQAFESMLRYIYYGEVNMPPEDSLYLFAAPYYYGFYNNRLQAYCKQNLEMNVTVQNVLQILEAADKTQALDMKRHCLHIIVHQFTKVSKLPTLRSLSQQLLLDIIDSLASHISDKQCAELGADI

B1: KLHDC10 (other, human, UniProt Q6PID8 1-442, looked up)
chain: MSAAQGWDRNRRRGGGAAGAGGGGSGAGGGSGGSGGRGTGQLNRFVQLSGRPHLPGKKKIRWDPVRRRFIQSCPIIRIPNRFLRGHRPPPARSGHRCVADNTNLYVFGGYNPDYDESGGPDNEDYPLFRELWRYHFATGVWHQMGTDGYMPRELASMSLVLHGNNLLVFGGTGIPFGESNGNDVHVCNVKYKRWALLSCRGKKPSRIYGQAMAIINGSLYVFGGTTGYIYSTDLHKLDLNTREWTQLKPNNLSCDLPEERYRHEIAHDGQRIYILGGGTSWTAYSLNKIHAYNLETNAWEEIATKPHEKIGFPAARRCHSCVQIKNDVFICGGYNGEVILGDIWKLNLQTFQWVKLPATMPEPVYFHCAAVTPAGCMYIHGGVVNIHENKRTGSLFKIWLVVPSLLELAWEKLLAAFPNLANLSRTQLLHLGLTQGLIERLK
B2: MAEA (other, human, UniProt Q7L5Y9 1-396, looked up)
chain: MAVQESAAQLSMTLKVQEYPTLKVPYETLNKRFRAAQKNIDRETSHVTMVVAELEKTLSGCPAVDSVVSLLDGVVEKLSVLKRKAVESIQAEDESAKLCKRRIEHLKEHSSDQPAAASVWKRKRMDRMMVEHLLRCGYYNTAVKLARQSGIEDLVNIEMFLTAKEVEESLERRETATCLAWCHDNKSRLRKMKSCLEFSLRIQEFIELIRQNKRLDAVRHARKHFSQAEGSQLDEVRQAMGMLAFPPDTHISPYKDLLDPARWRMLIQQFRYDNYRLHQLGNNSVFTLTLQAGLSAIKTPQCYKEDGSSKSPDCPVCSRSLNKLAQPLPMAHCANSRLVCKISGDVMNENNPPMMLPNGYVYGYNSLLSIRQDDKVVCPRTKEVFHFSQAEKVYIM
B3: KLHL11 (other, human, UniProt Q9NVR0 16-708, looked up)
chain: ASLQVLEMESMETAAAGSAGLAAEVRGSGTVDFGPGPGISAMEASGGDPGPEAEDFECSSHCSELSWRQNEQRRQGLFCDITLCFGGAGGREFRAHRSVLAAATEYFTPLLSGQFSESRSGRVEMRKWSSEPGPEPDTVEAVIEYMYTGRIRVSTGSVHEVLELADRFLLIRLKEFCGEFLKKKLHLSNCVAIHSLAHMYTLSQLALKAADMIRRNFHKVIQDEEFYTLPFHLIRDWLSDLEITVDSEEVLFETVLKWVQRNAEERERYFEELFKLLRLSQMKPTYLTRHVKPERLVANNEVCVKLVADAVERHALRAENIQSGTCQHPTSHVSLLPRYGQNMDVIMVIGGVSEGGDYLSECVGYFVDEDRWVNLPHIHNHLDGHAVAVTESYVYVAGSMEPGFAKTVERYNPNLNTWEHVCSLMTRKHSFGLTEVKGKLYSIGGHGNFSPGFKDVTVYNPELDKWHNLESAPKILRDVKALAIEDRFVYIAARTPVDRDTEDGLKAVITCYDTETRQWQDVESLPLIDNYCFFQMSVVNSNFYQTASCCPKSYCLENEEAVRKIASQVSDEILESLPPEVLSIEGAAICYYKDDVFIIGGWKNSDDIDKQYRKEAYRYCAERKRWMLLPPMPQPRCRATACHVRIPYRYLHGTQRYPMPQNLMWQKDRIRQMQEIHRHALNMRRVPSSQIEC
B4: MALT1 (other, human, UniProt Q9UDY8 2-824, looked up)
chain: SLLGDPLQALPPSAAPTGPLLAPPAGATLNRLREPLLRRLSELLDQAPEGRGWRRLAELAGSRGRLRLSCLDLEQCSLKVLEPEGSPSLCLLKLMGEKGCTVTELSDFLQAMEHTEVLQLLSPPGIKITVNPESKAVLAGQFVKLCCRATGHPFVQYQWFKMNKEIPNGNTSELIFNAVHVKDAGFYVCRVNNNFTFEFSQWSQLDVCDIPESFQRSVDGVSESKLQICVEPTSQKLMPGSTLVLQCVAVGSPIPHYQWFKNELPLTHETKKLYMVPYVDLEHQGTYWCHVYNDRDSQDSKKVEIIIGRTDEAVECTEDELNNLGHPDNKEQTTDQPLAKDKVALLIGNMNYREHPKLKAPLVDVYELTNLLRQLDFKVVSLLDLTEYEMRNAVDEFLLLLDKGVYGLLYYAGHGYENFGNSFMVPVDAPNPYRSENCLCVQNILKLMQEKETGLNVFLLDMCRKRNDYDDTIPILDALKVTANIVFGYATCQGAEAFEIQHSGLANGIFMKFLKDRLLEDKKITVLLDEVAEDMGKCHLTKGKQALEIRSSLSEKRALTDPIQGTEYSAESLVRNLQWAKAHELPESMCLKFDCGVQIQLGFAAEFSNVMIIYTSIVYKPPEIIMCDAYVTDFPLDLDIDPKDANKGTPEETGSYLVSKDLPKHCLYTRLSSLQKLKEHLVFTVCLSYQYSGLEDTVEDKQEVNVGKPLIAKLDMHRGLGRKTCFQTCLMSNGPYQSSAATSGGAGHYHSLQDPFHGVYHSHPGNPSNVTPADSCHCSRTPDAFISSFAHHASCHFSRSNVPVETTDEIPFSFSDRLRISEK
B5: KLHL26 (other, human, UniProt Q53HC5 2-615, looked up)
chain: AESGGSSGGAGGGGAFGAGPGPERPNSTADKNGALKCTFSAPSHSTSLLQGLATLRAQGQLLDVVLTINREAFPAHKVVLAACSDYFRAMFTGGMREASQDVIELKGVSARGLRHIIDFAYSAEVTLDLDCVQDVLGAAVFLQMLPVVELCEEFLKAAMSVETCLNIGQMATTFSLASLRESVDAFTFRHFLQIAEEEDFLRLPLERLVFFLQSNRLQSCAEIDLFRAAVRWLQHDPARRPRASHVLCHIRFPLMQSSELVDSVQTLDIMVEDVLCRQYLLEAFNYQVLPFRQHEMQSPRTAVRSDVPSLVTFGGTPYTDSDRSVSSKVYQLPEPGARHFRELTEMEVGCSHTCVAVLDNFVYVAGGQHLQYRSGEGAVDACYRYDPHLNRWLRLQAMQESRIQFQLNVLCGMVYATGGRNRAGSLASVERYCPRRNEWGYACSLKRRTWGHAGAASGGRLYISGGYGISVEDKKALHCYDPVADQWEFKAPMSEPRVLHAMVGAGGRIYALGGRMDHVDRCFDVLAVEYYVPETDQWTSVSPMRAGQSEAGCCLLERKIYIVGGYNWRLNNVTGIVQVYNTDTDEWERDLHFPESFAGIACAPVLLPRAGTRR
B6: KLHL21 (other, human, UniProt Q9UJP4 1-597, looked up)
chain: MERPAPLAVLPFSDPAHALSLLRGLSQLRAERKFLDVTLEAAGGRDFPAHRAVLAAASPYFRAMFAGQLRESRAERVRLHGVPPDMLQLLLDFSYTGRVAVSGDNAEPLLRAADLLQFPAVKEACGAFLQQQLDLANCLDMQDFAEAFSCSGLASAAQRFILRHVGELGAEQLERLPLARLLRYLRDDGLCVPKEEAAYQLALRWVRADPPRRAAHWPQLLEAVRLPFVRRFYLLAHVEAEPLVARCPPCLRLLREARDFQAARYDRHDRGPCPRMRPRPSTGLAEILVLVGGCDQDCDELVTVDCYNPQTGQWRYLAEFPDHLGGGYSIVALGNDIYVTGGSDGSRLYDCVWRYNSSVNEWAEVAPMLKAREYHSSSVLDGLLYVVAADSTERYDHTTDSWEALQPMTYPMDNCSTTACRGRLYAIGSLAGKETMVMQCYDPDTDLWSLVDCGQLPPWSFAPKTATLNGLMYFVRDDSAEVDVYNPTRNEWDKIPSMNQVHVGGSLAVLGGKLYVSGGYDNTFELSDVVEAYDPETRAWSVVGRLPEPTFWHGSVSIFRQFMPQTFSGGRGFELDSGSDDMDPGRPRPPRDPDELH

Legend:
[1] = molecular target: T1, LZTR1 R810W-FLAG; assay: IP/MS, LZTR1 R810W-FLAG, U87
In short: (§1)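 Gel slices were reduced with 5 mM DTT, alkylated with 11 mM IAA and digested overnight at 37° C. with trypsin. Peptides were analysed on an Orbitrap Fusion Tribrid by LC-MS/MS.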

[2] = molecular target: T2, LZTR1-FLAG; assay: IP/MS, LZTR1 wild type-FLAG, U87
In short: as §1

Row | Binder | binding result [1] | binding result [2]
1 | B1 | binds | binds
2 | B2 | binds | binds
3 | B3 | binds | binds
4 | B4 | binds | binds
5 | B5 | binds | binds
6 | B6 | binds | binds
